Test results: patent publication US20140004106A1

How the values were obtained:
[1] = target: 28mer peptide of the CXCR5 antigen; assay: Antigen-ELISA; PBS 155 mM, light stress, 24 h
[2] = target: 28mer peptide of the CXCR5 antigen; assay: Potency (Antigen ELISA); stored +5°C, 1 month
[3] = target: 28mer peptide of the CXCR5 antigen; assay: Antigen-ELISA; histidine 10 mM prototype B, T0
[4] = target: 28mer peptide of the CXCR5 antigen; assay: ELISA potency (binding); 100 mg/mL, Glycine (20) + Mannitol (15), T zero
[5] = target: 28mer peptide of the CXCR5 antigen; assay: Antigen-ELISA; Citrate 10 mM pH 6.00, T0
[6] = target: 28mer peptide of the CXCR5 antigen; assay: ELISA potency (binding); 100 mg/mL, Arginine (20) + NaCl (2), T zero
[7] = target: 28mer peptide of the CXCR5 antigen; assay: Antigen-ELISA; PBS 155 mM, polyethylene high density, 24 h +40°C
[8] = target: 28mer peptide of the CXCR5 antigen; assay: Antigen-ELISA; Histidine 10 mM pH 6, T0
[9] = target: 28mer peptide of the CXCR5 antigen; assay: Antigen-ELISA; Saline 150 mM pH 6.00, after 1 week at +40°C
[10] = target: 28mer peptide of the CXCR5 antigen; assay: ELISA potency (binding); 100 mg/mL, Sucrose (60) + NaCl (2), T zero
[11] = target: 28mer peptide of the CXCR5 antigen; assay: Antigen-ELISA; PBS 155 mM pH 7.00, after mechanical stress 350 rpm 2.5 h
[12] = target: 28mer peptide of the CXCR5 antigen; assay: Antigen-ELISA; standard run with LA_09_29A, T0
[13] = target: 28mer peptide of the CXCR5 antigen; assay: ELISA potency (binding); 100 mg/mL, Trehalose (60) + Mannitol (15), T zero
[14] = target: 28mer peptide of the CXCR5 antigen; assay: Antigen-ELISA; Arginine 10 mM pH 6, after 1 week at +40°C
[15] = target: 28mer peptide of the CXCR5 antigen; assay: Antigen-ELISA; Arginine 10 mM pH 6, T0
[16] = target: 28mer peptide of the CXCR5 antigen; assay: Antigen-ELISA; Citrate 10 mM pH 5.50, after mechanical stress 350 rpm 2.5 h
[17] = target: 28mer peptide of the CXCR5 antigen; assay: Antigen-ELISA; PB 5 mM pH 7.00, after mechanical stress 350 rpm 2.5 h
[18] = target: 28mer peptide of the CXCR5 antigen; assay: ELISA potency (binding); 100 mg/mL, Sucrose (60) + NaCl (2), 7 days at 40°C
[19] = target: 28mer peptide of the CXCR5 antigen; assay: Potency (Antigen ELISA); stored +5°C, 15 months
[20] = target: 28mer peptide of the CXCR5 antigen; assay: Antigen-ELISA; PBS 155 mM pH 7.00, after 1 week at +40°C
[21] = target: 28mer peptide of the CXCR5 antigen; assay: Potency (Antigen ELISA); stored -20°C, 18 months
[22] = target: 28mer peptide of the CXCR5 antigen; assay: Antigen-ELISA; Citrate 10 mM pH 6.50, after mechanical stress 350 rpm 2.5 h
[23] = target: 28mer peptide of the CXCR5 antigen; assay: Potency (Antigen ELISA); stored +25°C, 6 months
[24] = target: 28mer peptide of the CXCR5 antigen; assay: Antigen-ELISA; Citrate 10 mM pH 7.00, after mechanical stress 350 rpm 2.5 h
[25] = target: 28mer peptide of the CXCR5 antigen; assay: Potency (Antigen ELISA); stored +5°C, 3 months
[26] = target: 28mer peptide of the CXCR5 antigen; assay: Antigen-ELISA; PB 10 mM pH 6.50, after 1 week at +40°C
[27] = target: 28mer peptide of the CXCR5 antigen; assay: ELISA potency (binding); 100 mg/mL, Lysine (30) + NaCl (2), T zero
[28] = target: 28mer peptide of the CXCR5 antigen; assay: Ag-ELISA; DS in PBS, release
[29] = target: 28mer peptide of the CXCR5 antigen; assay: Antigen-ELISA; Histidine 10 mM pH 5.5, T0
[30] = target: 28mer peptide of the CXCR5 antigen; assay: Antigen-ELISA; Citrate 10 mM pH 7.00, after 1 week at +40°C
[31] = target: 28mer peptide of the CXCR5 antigen; assay: Antigen-ELISA; standard run with LA_09_27B, T0
[32] = target: 28mer peptide of the CXCR5 antigen; assay: Antigen-ELISA; Acetate 10 mM pH 5.50, after 1 week at +40°C
[33] = target: 28mer peptide of the CXCR5 antigen; assay: Ag-ELISA; DS in PBS, -20°C, 3 months
[34] = target: 28mer peptide of the CXCR5 antigen; assay: Potency (Antigen ELISA); stored +5°C, 9 months
[35] = target: 28mer peptide of the CXCR5 antigen; assay: Antigen-ELISA; Glycine 10 mM pH 7, T0
[36] = target: 28mer peptide of the CXCR5 antigen; assay: Antigen-ELISA; Arginine 10 mM pH 8, T0
[37] = target: 28mer peptide of the CXCR5 antigen; assay: Antigen-ELISA; Histidine 10 mM pH 6.5, after 1 week at +40°C
[38] = target: 28mer peptide of the CXCR5 antigen; assay: Antigen-ELISA; Arginine 10 mM pH 8, after 1 week at +40°C
[39] = target: 28mer peptide of the CXCR5 antigen; assay: ELISA potency (binding); 100 mg/mL, Lysine (30) + Mannitol (15), 7 days at 40°C
[40] = target: 28mer peptide of the CXCR5 antigen; assay: Antigen-ELISA; Citrate 10 mM pH 7.00, T0
[41] = target: 28mer peptide of the CXCR5 antigen; assay: Potency (Antigen ELISA); stored +5°C, 12 months
[42] = target: 28mer peptide of the CXCR5 antigen; assay: Potency (Antigen ELISA); stored +25°C, initial
[43] = target: 28mer peptide of the CXCR5 antigen; assay: Potency (Antigen ELISA); stored -20°C, 12 months

B1: Lead CXCR5 Antibody (humanized IgG4 anti-CXCR5 antibody) (antibody, V domains shown)
VH: QVQLKESGPGLVAPSESLSITCTVSGFSLIDYGVNWIRQPPGKGLEWLGVIWGDGTTYYNPSLKSRLSISKDNSKSQVFLKVTSLTTDDTAMYYCARIVYWGQGTLVTVSA
VL: DIVMTQAAPSVAVTPGASVSISCRSSKSLLHSSGKTYLYWFLQRPGQSPQLLIYRLSSLASGVPDRFSGSGSGTAFTLRISRVEAEDVGVYYCMQHLEYPYTFGGGTKLEIKR
EC50 % [1]: 72.3%
EC50 value (in comparison to reference) [2]: 105%
EC50 % [3]: 118%
rel. potency [%] [4]: 111%
EC50 % [5]: 52%
rel. potency [%] [6]: 144%
EC50 % [7]: 157%
EC50 % [8]: 184%
EC50 % [9]: 80.9%
rel. potency [%] [10]: 165%
EC50 % [11]: 50%
EC50 % [12]: 100%
rel. potency [%] [13]: 156%
EC50 % [14]: 99%
EC50 % [15]: 114%
EC50 % [16]: 79%
EC50 % [17]: 110%
rel. potency [%] [18]: 188%
EC50 value (in comparison to reference) [19]: 114%
EC50 % [20]: 97%
EC50 value (in comparison to reference) [21]: 127%
EC50 % [22]: 41%
EC50 value (in comparison to reference) [23]: 104%
EC50 % [24]: 101%
EC50 value (in comparison to reference) [25]: 95%
EC50 % [26]: 78.8%
rel. potency [%] [27]: 130%
EC50 % [28]: 100%
EC50 % [29]: 57%
EC50 % [30]: 111%
EC50 % [31]: 100%
EC50 % [32]: 94.9%
EC50 % [33]: 93%
EC50 value (in comparison to reference) [34]: 92%
EC50 % [35]: 127%
EC50 % [36]: 121%
EC50 % [37]: 175%
EC50 % [38]: 88%
rel. potency [%] [39]: 297%
EC50 % [40]: 59.9%
EC50 value (in comparison to reference) [41]: 93%
EC50 value (in comparison to reference) [42]: 75%
EC50 value (in comparison to reference) [43]: 96%
